In PMC4666130 (Molecular Biology of the Cell, 2015):

Biological target: T1, claudin-19 (human CLDN19), expressed in HEK293 cells (human, UniProt Q8N6F1 1-224)
T1 sequence (looked up): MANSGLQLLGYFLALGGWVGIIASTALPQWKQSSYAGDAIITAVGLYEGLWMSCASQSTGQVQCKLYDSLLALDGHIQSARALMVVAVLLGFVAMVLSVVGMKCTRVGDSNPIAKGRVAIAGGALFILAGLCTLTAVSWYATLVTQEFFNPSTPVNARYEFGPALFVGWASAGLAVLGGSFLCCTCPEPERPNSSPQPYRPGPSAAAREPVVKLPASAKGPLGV
Test: cross-linking

B1: claudin-16 (human CLDN16), expressed in HEK293 cells (natural protein, UniProt Q9Y5I7 1-235, looked up)
chain: MRDLLQYIACFFAFFSAGFLIVATWTDCWMVNADDSLEVSTKCRGLWWECVTNAFDGIRTCDEYDSILAEHPLKLVVTRALMITADILAGFGFLTLLLGLDCVKFLPDEPYIKVRICFVAGATLLIAGTPGIIGSVWYAVDVYVERSTLVLHNIFLGIQYKFGWSCWLGMAGSLGCFLAGAVLTCCLYLFKDVGPERNYPYSLRKAYSAAGVSMAKSYSAPRTETAKMYAVDTRV
stoichiometry N: 1 claudin-16 per claudin-19
